{"source": "patent US20240369485A1", "about": "“FLUORESCENT SENSOR FOR MONITORING CALCIUM DYNAMICS” (priority 2021, published 2024)", "molecules": {"B1": {"name": "R-CatchER: red genetically encoded Ca^2+ indicator, mApple A145E/K198D/R216D, SEQ ID NO: 12 (protein)", "chain": "EENNMAIIKEFMRFKVHMEGSVNGHEFEIEGEGEGRPYEAFQTAKLKVTKGGPLPFAWDILSPQFMYGSKVYIKHPADIPDYFKLSFPEGFRWERVMNFEDGGIIHVNQDSSLQDGVFIYKVKLRGTNFPSDGPVMQKKTMGWEESEERMYPEDGALKSEIKKRLKLKDGGHYAAEVKTTYKAKKPVQLPGAYIVDIDLDIVSHNEDYTIVEQYEDAEGRHSTGGMDELYK"}}, "key": {"ER Ca^2+": {"system": "ER Ca^2+", "test": "Quantitative basal/resting ER Ca^2+ measurement using R-CatchER", "assay_type": "cell-based"}, "C2C12 cells": {"system": "C2C12 cells", "test": "HILO imaging of ER Ca^2+ dynamics in C2C12 cells", "assay_type": "cell-based", "conditions": "ER Ca^2+ release", "description": "(§1) Cell culture and transfection. C2C12, HEK293 and HeLa cells were cultured and maintained in Dulbecco's modified Eagle's medium (DMEM) supplemented with 10% fetal bovine serum (FBS) and high glucose (4.5 g/L) at 37° C. R-CatchER, G-CatchER2, G-CEPIA1er, R-CEPIA1er or R-CatchER with GFP-CaSR (wt and mutations) were transfected into cells using Lipofectamine 3000 (Life Technologies), following the manufacturer's instructions. Seed cells onto sterilized 22 mm×40 mm glass microscope slides in 6 cm dishes until about 70% confluency, the day of transfection. The next day, 2 μg of plasmid were mixed with transfection reagent in the reduced serum media Opti-MEM for 4-6 h at 37° C. The media was then replaced with 3 mL of fresh DMEM and incubated at 37° C. for 48 h.\nHILO imaging of R-CatchER, G-CatchER2, R-CEPIA1er, and G-CEPIA1er. […] A quad-band filter set (TRF89901v2, Chroma) was used for filtering out the fluorescence background. Fluorescence images of samples were recorded at 1 Hz as the concentration of ER Ca^2+ was perturbed by perfusion of 3 μM Thapsigargin, 0.5 mM 4-cmc, 1 mM 4-cmc, 100 μM ATP, or 100 μM histamine."}, "HeLa cells [1]": {"system": "HeLa cells", "test": "Confocal imaging of R-CatchER with ER-tracker green", "assay_type": "cell-based", "description": "Confocal imaging of R-CatchER. HeLa cells were transfected with R-CatchER two days before fixing. Cells were fixed with 3.7% Thermo Scientific™ Pierce™ 16% Formaldehyde (w/v), methanol-free, and permeabilized with 0.1% Triton X-100. Cells were then stained with ER-Tracker green (Invitrogen) and with ProLong gold antifade mountant with DAPI (Invitrogen) for staining the nucleus. Confocal imaging then was performed using a Zeiss LSM 700 confocal laser scanning microscope (CLSM)."}, "[2]": {"test": "Calcium (Ca^2+) binding assay: fluorescence/absorbance titration of purified protein", "summary_of_the_method": "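Purified mApple, EGFP and mCherry variants at 10 μM (mApple with 5 μM EGTA in 10 mM Tris, pH 7.4, triplicate) were titrated stepwise with Ca^2+. Fluorescence was followed across the titration, with absorbance spectra of Ca^2+-free and Ca^2+-loaded forms taken before and after. Affinity came from a 1:1 binding fit.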"}, "HeLa cells [3]": {"system": "HeLa cells", "test": "In situ Ca^2+ binding affinity in HeLa cells with stepwise Ca^2+ concentrations", "assay_type": "cell-based", "description": "as §1"}}, "note": "Like-named read-outs stand apart in the source and are kept apart here."}
{"molecule": "B1", "values": [{"measurement": "Basal [Ca^2+]ER", "setting": "ER Ca^2+; 6-23 cells, 0.5 mM Ca^2+", "value": "735.0 ± 66.7", "unit": "µM"}, {"measurement": "Basal [Ca^2+]ER", "setting": "ER Ca^2+; CaSR L173P, 1.8 mM Ca^2+", "value": "893.6 ± 67.6", "unit": "µM"}, {"measurement": "Basal [Ca^2+]ER", "setting": "ER Ca^2+; CaSR P221L, 1.8 mM Ca^2+", "value": "477.7 ± 49.4", "unit": "µM"}, {"measurement": "Basal [Ca^2+]ER", "setting": "ER Ca^2+; CaSR P221Q, 1.8 mM Ca^2+", "value": "674.6 ± 50.2", "unit": "µM"}, {"measurement": "Basal [Ca^2+]ER", "setting": "ER Ca^2+; CaSR S820F, 1.8 mM Ca^2+", "value": "406.1 ± 41.4", "unit": "µM"}, {"measurement": "Basal [Ca^2+]ER", "setting": "ER Ca^2+; GFP-CaSR, 0.5 mM Ca^2+", "value": "487.1 ± 48.2", "unit": "µM"}, {"measurement": "resting ER Ca^2+ concentration", "setting": "ER Ca^2+; HEK293 cells", "value": "0.68 ± 0.22", "unit": "mM"}, {"measurement": "resting ER Ca^2+ concentration", "setting": "ER Ca^2+; HeLa cells", "value": "0.59 ± 0.16", "unit": "mM"}, {"measurement": "Basal [Ca^2+]ER", "setting": "ER Ca^2+; TT cells, 0.5 mM Ca^2+", "value": "539.0 ± 65.9", "unit": "µM"}, {"measurement": "fluorescence decrease ΔF/F", "setting": "C2C12 cells; 0.5 mM 4-cmc", "value": "0.36±0.01"}, {"measurement": "fluorescence decrease ΔF/F", "setting": "C2C12 cells; 1 mM 4-cmc", "value": "0.47±0.02"}, {"measurement": "Pearson's Coefficient of colocalisation with ER-tracker green", "setting": "HeLa cells [1]", "value": 0.83}, {"measurement": "Ca^2+ induced fluorescence changes upon addition of other ions (metal selectivity)", "setting": "[2]; 1 mM Mg^2+, 150 mM KCl, 150 mM NaCl", "value": "insensitive"}, {"measurement": "Fmax/Fmin", "setting": "[2]; EGFP and mApple variants", "value": 4.22}, {"measurement": "Aholo/Aapo", "setting": "[2]; absorbance at 569", "value": "4.33 (569)"}, {"measurement": "fluorescence dynamic range ΔF/F", "setting": "[2]; in vitro, Ca^2+ binding", "value": "4.22±0.04"}, {"measurement": "Kd", "setting": "[2]; in vitro, purified protein, read-out: Kd for Ca^2+ binding", "value": "350 ± 30", "unit": "µM"}, {"measurement": "Hill coefficient", "setting": "[2]; purified indicator, Ca^2+ binding", "value": 0.98}, {"measurement": "Dynamic Range", "setting": "[2]; purified indicator, Ca^2+ induced fluorescence", "value": 4.2}, {"measurement": "Kd", "setting": "[2]; purified indicator, Ca^2+, read-out: Kd", "value": 361, "unit": "µM"}, {"measurement": "Kd", "setting": "HeLa cells [3]", "value": "310 ± 50", "unit": "µM"}]}
